B1: TPR t1 (parent)
chain: GACCAAUCUGCCCUCAGAGCUCGAGAACAUCUUCGGAUGCAGAGGAGGCAGGCUUCGGUGGCGCGAUAGCGCCAACGUCCUCAACCUCCAAUGCAUCCCACCACAUGAUGAUGCCUGAAGAGCCUUGGUUUUUUG

Variants of: B1
Test: polymerase ribozyme fitness, log enrichment relative to wild type (log ratio); higher = more active; in vitro selection for triplet polymerase activity
Method in brief: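 Mutant libraries of each subunit of a heterodimeric triplet polymerase ribozyme were built by PCR and transcribed. Each library went through one round of in vitro selection in triplicate: annealing with biotinylated primer, partner subunit and triplets, frozen incubation at −7 °C, gel excision of extended constructs, streptavidin-bead capture and RT-PCR. Input and output libraries were Illumina-sequenced; only genotypes with ≥10 input reads and ≥1 read per output were kept. Fitness is log2(genotype enrichment/wild-type enrichment), using inverse-variance-weighted replicate averages.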

| Variant | polymerase ribozyme fitness (log ratio) |
| --- | --- |
| GACCAAUCUGCCCUCAGAGCUCGAGUACAUCUUCGGAUGCAGAGGUGGCAGGCUUCGGUGACGCGAUAGCGCCAACGUCCUCAACCUCCAAUGCAUCCCACCACAUGAUGAUGCCUGAAGAGCCUUGGUUUUUUG [A26U A46U G61A] | -3.77 |
| GACCAAUCUGCCCUCAGAGCUCGAGUACAUCUUCGGGUGCAGAGGAGGCAGGAUUCGGUGGCGCGAUAGCGCCAACGUCCUCAACCUCCAAUGCAUCCCACCACAUGAUGAUGCCUGAACAGACUUGGUUUUUUG [A26U A37G C53A G120C C123A] | -2.54 |
| GACCAAUCUGCCCUCAGAGCUCGAGUACAUCUUCGGAUGCAGAGGAGGCAGGCUUCGGUGGCGCGAUAGCGCCUACGUCCUCAACCUACAAUACAUCCCAUCACAUGAUGAUGCCUGAAGAGCCUUGGUUUUUUG [A26U A74U C88A G93A C101U] | -5.3 |
| GACCAAUCUGCCCUCAGAGCUCGAGUACAUCUUCGGCUGCAGAGGAGGCAGGCUUCGGUGGCGCGAUAGCGGCAACAUCCUCAACCUCCAAUGCAUCCCACCACAUGAUGAUGCCUGAAGAGCGUUGGUUUUUUG [A26U A37C C72G G77A C124G] | -2.81 |
| GACCAAUCUGCCCUCAGAGCUCGAGUACAUCUUCGGAUGCAGAGGAGGCUGGCUUCGGUGGCGCGAUAGCGCCAACGUCCUCAACCUCCAAUGCAUCCCACCACAUGAUGAUGCCUGAAGAGCCUUGGUUUUUUG [A26U A50U] | -4.75 |
| GACCAAUCUGCCCUCAGAGCUCGAGUACAUCUUCGGAUGCAGAGGCGGCAGGCUUAGGUGGCGCGAUAGCGCCAACGUCCUCAACCUCCAAUGCAUCCCACCACAUGAUGAUGCCUGAAUAGCCUUGGUUUUUUG [A26U A46C C56A G120U] | -4.53 |
| GACCAAUCUGCCCUCAGAGCUCGAGUACAUCUUCGGAUGCAGAGGAGGCCGGCUGCGGUGGCGCGAUAGCGCCAACGUCCUCAACCUCCAAUGCAUCCCACCACAUGAUGAUGCCUGAAGAGCCUUGGUUUUUUG [A26U A50C U55G] | -4.51 |
| GACCAAUCUGCCCUCAGAGCUCGAGUACAUCUUCGGAUGCAGAGGCGGCAGGCUUCGGUGGCACGAUAGCGCCAACGUCCUCAACCUCCAAUGCAUCCCACCACAUGAUGAUGCCUGAAUAGCCUUGGUUUUUUG [A26U A46C G63A G120U] | -5 |
| GACCAAUCUGCCCUCAGAGCUCGAGUACAUCUUCGGAUGCAGUGUAGGCAGGCUUCGGUGGCCCGAUAGCGCCAACGUCCUCAACCUCUAAUGCAUCCCACCACAUGAUGAUGCCUGAAAAGCCUUGGUUUUUUG [A26U A43U G45U G63C C89U G120A] | -6.22 |
| GACCAAUCUGCCCUCAGAGCUCGAGUACAUCUUCGGAUGCAGAGGAGGCUGGCUUCGGUGGCGCGAUAGCGCCAACGUCCUCAACCUCCAAUGCAUCCCACCACAUGAUGAUGCCUGAAGAGCGUUGGUUUUUUG [A26U A50U C124G] | -2.5 |
| GACCAAUCUGCCCUCAGAGCUCGAGUACAUCUUCGGCUGCAGAGGAGGCAGGCUUCGGUGGCGCGAUAGCGCCAACGUCCUCAACCUCCAAUGCAUCCCACCACAUGAUGAUGCCUGAAGAGCCUUGGUUUUUUG [A26U A37C] | -2.35 |
| GACCAAUCUGCCCUCAGAGCUCGAGUACAUCUUCGGGUGCAGAGGAGGCAGGCUUCGGUGGCGCGAUAGCGCCAACGUCCUCAACCUCCAAUGCAUCCCACCACAUGAUGAUGCCUGAAGAGCCUUGGUUUUUUG [A26U A37G] | -2.5 |
| GACCAAUCUGCCCUCAGAGCUCGAGUACAUCUUCGGAUGCAGAGGUGGCAGGCUUCGGUGGCGCGAUAGCGUCAACGUCCUCAACCUCCAAUGCAUCCCACCACAUGAUGAUGCCUGAAGAGCCUUGGUUUUUUG [A26U A46U C72U] | -3.97 |
| GACCAAUCUGCCCUCAGAGCUCGAGUACAUCUUCGGAUGCAGAGGUGGCAGGCUUCGGUGGCGCGAUAGCGCCAACGUCCUCAACCUCCAAUGCAUCCCACCACAUGAUGAUGCCUGAAGAGCCUUGGUUUUUUG [A26U A46U] | -4.63 |
| GACCAAUCUGCCCUCAGAGCUCGAGUACAUCUUCGGAUGCCGAGGUGGCAGGCUUCGGUGACGCGAUAGCGCCAACGUCCUCAACCUCCAAUGCAUCCCAUCACAUGAUGAUGCCUGAAGAGCCUUGGUUUUUUG [A26U A41C A46U G61A C101U] | -4.43 |
| GACCAAUCUGCCCUCAGAGCUCGAGGACAUCUUCGGAUGCAGAGGAGGCAGGCUUCGGUGGCGCGAUAGCGCCAACGUCCUCAACCUCCAAUGCAUCCCACCACAUGAUGAAGCCUGAAGAGCCAUGGUUUUUUG [A26G U112A U125A] | -1.55 |
| GACCAAUCUGCCCUCAGAGCUCGAGGACAUCUUCGGAUGCAGAGGAGGCAGGCAUCGGUGGCGCGAUAGCGCCAACGUCCUCAACCUCCAAUGCAUCCCACCACAUGGUGAUGCCUGAAGAGCCUUGGUUUUUUG [A26G U54A A108G] | -4.49 |
| GACCAAUCUGCCCUCAGAGCUCGAGUACAUCUUCGGAUGCAGAGGAGGCCGGCUUCGAUGGCGCGAUAGCGCCAACGUCCUCAACCUCCAAUGCAUCCCACCACAUGAUGAUGCCUGAAGAGCCUUGGUUUUUUG [A26U A50C G58A] | -4.45 |
| GACCAAUCUGCCCUCAGAGCUCGAGUACAUCUUCGGAUGCAGGGGAGUCAGGCUUCGGUGGCGCGAUAGCGCCAACGUCCUCAACCUCCAAUGGAUCCCACCACAUGAUAAUGCCUGAAGAGCCUUGGUUUUUUG [A26U A43G G48U C94G G110A] | -6.66 |
| GACCAAUCUGCCCUCAGAGCUCGAGUACAUCUUCGGAUGCAGAGGAGGCUGGCUUCCGUGGCGCGAUAGCGCCAACGUCCUCAACCUCCAAUGCAUCCCACCACAUGAUGAUGCCUGAAGAGCCUUGGUUUUUUG [A26U A50U G57C] | -4.64 |
| GACCAAUCUGCCCUCAGAGCUCGAGUACAUCUUCGGAUGCAGAGGAGGCAGGCUUCGGUGGCGCGAUAGCGCCGACGUCCUCAACCUCCAAUGCAUCCCACCACAUGAUGAUGCCUGAAGGGCCUUGGUUUUUUG [A26U A74G A121G] | -1.18 |

— the RNAGym collection of RNA variant scans (doi:10.1073/pnas.2313332121)
